Tests used:
crystal structure = biological target: the molecule itself; assay: crystal structure
[1] = biological target: T1, E. coli ketosynthase FabF (E. coli, UniProt P0AAI5 1-413); assay: cross-linking
T1 sequence: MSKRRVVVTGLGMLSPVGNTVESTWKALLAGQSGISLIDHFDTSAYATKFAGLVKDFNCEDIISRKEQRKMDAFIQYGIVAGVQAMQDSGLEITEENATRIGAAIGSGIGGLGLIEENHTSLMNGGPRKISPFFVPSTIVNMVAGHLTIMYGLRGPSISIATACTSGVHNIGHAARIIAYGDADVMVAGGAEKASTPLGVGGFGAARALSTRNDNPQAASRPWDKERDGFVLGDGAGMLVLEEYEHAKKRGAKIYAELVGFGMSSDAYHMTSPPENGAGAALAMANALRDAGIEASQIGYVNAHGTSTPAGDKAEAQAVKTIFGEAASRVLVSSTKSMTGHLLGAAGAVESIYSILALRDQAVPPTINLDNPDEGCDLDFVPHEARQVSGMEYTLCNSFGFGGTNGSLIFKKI

| Binder | stoichiometry N (crystal structure) | binding result [1] |
| --- | --- | --- |
| E. coli ketosynthase FabB (enzyme) MKRAVITGLGIVSSIGNNQQEVLASLREGRSGITFSQELKDSGMRSHVWGNVKLDTTGLIDRKVVRFMSDASIYAFLSMEQAIADAGLSPEAYQNNPRVGLIAGSGGGSPRFQVFGADAMRGPRGLKAVGPYVVTKAMASGVSACLATPFKIHGVNYSISSACATSAHCIGNAVEQIQLGKQDIVFAGGGEELCWEMACEFDAMGALSTKYNDTPEKASRTYDAHRDGFVIAGGGGMVVVEELEHALARGAHIYAEIVGYGATSDGADMVAPSGEGAVRCMKMAMHGVDTPIDYLNSHGTSTPVGDVKELAAIREVFGDKSPAISATKAMTGHSLGAAGVQEAIYSLLMLEHGFIAPSINIEELDEQAAGLNIVTETTDRELTTVMSNSFGFGGTNATLVMRKLKD | 2 |  |
| ACP loaded with the (Z)-C14Cl chloroacrylate crosslinking probe (crypto-ACP) (natural protein, E. coli, S36 carries the 4'-phosphopantetheine analogue with the (Z)-C14Cl (C14-chloroacrylate) crosslinking probe) STIEERVKKIIGEQLGVKQEEVTNNASFVEDLGADSLDTVELVMALEEEFDTEIPDEEAEKITTVQAAIDYINGHQA |  | binds |
